Measurements reported in US20140370021A1 (Xencor, published 2014).

B1: V264I (antibody)
heavy: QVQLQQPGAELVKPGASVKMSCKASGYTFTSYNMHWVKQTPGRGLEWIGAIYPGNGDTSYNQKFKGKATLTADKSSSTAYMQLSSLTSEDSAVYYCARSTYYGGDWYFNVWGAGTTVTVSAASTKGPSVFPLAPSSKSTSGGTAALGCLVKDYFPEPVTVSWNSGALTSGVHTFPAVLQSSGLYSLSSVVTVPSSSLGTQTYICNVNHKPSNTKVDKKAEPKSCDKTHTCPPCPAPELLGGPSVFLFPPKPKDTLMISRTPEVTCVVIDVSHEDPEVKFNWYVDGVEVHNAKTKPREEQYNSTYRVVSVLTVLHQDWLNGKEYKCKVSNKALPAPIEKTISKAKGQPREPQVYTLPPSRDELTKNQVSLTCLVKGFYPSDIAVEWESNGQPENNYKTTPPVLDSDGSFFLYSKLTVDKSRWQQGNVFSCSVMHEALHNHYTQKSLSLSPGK
light: QIVLSQSPAILSASPGEKVTMTCRASSSVSYIHWFQQKPGSSPKPWIYATSNLASGVPVRFSGSGSGTSYSLTISRVEAEDAATYYCQQWTSNPPTFGGGTKLEIKRTVAAPSVFIFPPSDEQLKSGTASVVCLLNNFYPREAKVQWKVDNALQSGNSQESVTEQDSKDSTYSLSSTLTLSKADYEKHKVYACEVTHQGLSSPVTKSFNRGEC
modifications: N297 glycan, not carried by the letters.
notes: also called rituximab V264I; copies: 2 + 2
B2: rituximab V264I/I332E (antibody, human IgG1, kappa)
heavy: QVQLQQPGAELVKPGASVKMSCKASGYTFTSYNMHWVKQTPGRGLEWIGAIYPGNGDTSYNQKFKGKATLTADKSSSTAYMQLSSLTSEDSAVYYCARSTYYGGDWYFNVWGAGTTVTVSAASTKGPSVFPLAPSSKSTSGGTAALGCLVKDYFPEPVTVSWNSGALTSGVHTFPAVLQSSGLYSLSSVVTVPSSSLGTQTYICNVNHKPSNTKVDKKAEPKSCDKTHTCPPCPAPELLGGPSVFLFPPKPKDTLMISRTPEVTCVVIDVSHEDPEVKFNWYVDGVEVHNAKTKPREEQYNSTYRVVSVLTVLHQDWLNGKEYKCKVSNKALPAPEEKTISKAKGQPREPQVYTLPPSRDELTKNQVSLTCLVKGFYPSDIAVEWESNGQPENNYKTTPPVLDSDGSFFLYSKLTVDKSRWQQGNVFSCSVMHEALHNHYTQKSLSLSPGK
light: QIVLSQSPAILSASPGEKVTMTCRASSSVSYIHWFQQKPGSSPKPWIYATSNLASGVPVRFSGSGSGTSYSLTISRVEAEDAATYYCQQWTSNPPTFGGGTKLEIKRTVAAPSVFIFPPSDEQLKSGTASVVCLLNNFYPREAKVQWKVDNALQSGNSQESVTEQDSKDSTYSLSSTLTLSKADYEKHKVYACEVTHQGLSSPVTKSFNRGEC

Biological target: T1, extracellular region of human V158 FcγRIIIa fused with glutathione S-transferase (GST) (human, UniProt P08637 17-208)
T1 construct: extracellular domain; also called human Val158 FcγRIIIa; not shown: glutathione S-transferase (GST) tag
Assay: AlphaScreen competition as in Example 2 (biotinylated WT antibody on donor beads, GST-tagged human V158 FcγRIIIa on acceptor beads); Fc variants in the context of rituximab

T1 sequence (P08637 17-208 F176V): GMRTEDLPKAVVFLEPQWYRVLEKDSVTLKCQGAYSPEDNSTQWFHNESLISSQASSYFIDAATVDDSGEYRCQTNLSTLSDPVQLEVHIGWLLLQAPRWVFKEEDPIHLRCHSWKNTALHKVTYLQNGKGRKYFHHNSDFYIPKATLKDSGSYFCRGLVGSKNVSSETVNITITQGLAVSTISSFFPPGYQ

| Binder | IC50 (read off the curve) [nM] |
| --- | --- |
| B1 | ~5 |
| B2 | ~0.4 |
